From the DeepSol protein solubility set

Assay: soluble on expression in E. coli; label from the status in PepcDB or PDB records

Which “soluble on expression in E. coli” value does the source give for “MGSDKIHHHHHHMSEKKILILCQYFYPEYVSSATLPTQLAEDLIANHINVDVMCGWPYEYSNHKQVSKTEMHRGIRIRRLKYSRFNNKSKVGRIINFFSLFSKFVINIPKMLKYDQILVYSNPPILPLIPDVLHRLLKKKYSFVVYDIAPDNAIKTGATRPGSMIDKLMRYINRHVYKNAENVIVLGTEMKNYLLNHQISKNADNIHVIPNWYDMRQLQDNRIYNDTFKAYREQYDKILLYSGNMGQLQDMETLISFLKLNKDQPQTLTILCGHGKKFADVKTAIEDHRIENVKMFEFLTGTDYADVLKIADVCIASLIKEGVGLGVPSKNYGYLAAKKPLVLIMDKQSDIVQHVEQYDAGIQIDNGDAHAIYNFINTHSSKELHEMGERAHQLFKDKYTREINTMKYYNLLK” here?
Its value is “not soluble”.

Which “soluble on expression in E. coli” value does the source give for “MSLSYTTQQIIEKLRELKIVPVIALDNADDILPLADTLAKNGLSVAEITFRSEAAADAIRLLRANRPDFLIAAGTVLTAEQVVLAKSSGADFVVTPGLNPKIVKLCQDLNFPITPGVNNPMAIEIALEMGISAVKFFPAEASGGVKMIKALLGPYAQLQIMPTGGIGLHNIRDYLAIPNIVACGGSWFVEKKLIQSNNWDEIGRLVREVIDIIKEGGSHHHHHH” here?
The value was “soluble”.

For “MDQERARKRGITMGKQEFDGMSRISGLLTPELRATIEAVLAKLAAPGACNPDDQTPLVDDTPDADAVRRDTRSQAQRHHDGLLAGLRGLLASGELGQHRGLPVTVVVSTTLKELEAATGKGVTGGGSRVPMSDLIRMASNAHHYLALFDGAKPLALYHTKRLASPAQRIMLYAKDRGCSLEHHHHHH”, which “soluble on expression in E. coli” value is on record?
The value was “soluble”.

Which “soluble on expression in E. coli” value does the source give for “MKKIRLAVIGTGMAWERLHYPAIKELEDKYEIVALCNRTRKDAEEFAKKINLSMDRVYDDYNEMLKRQDIDAVDILVPIESNYTVSEAVAKAGKDFICEKPLAANREEAKKYLELSKKYNVRIMIAENYRYSDEYNKIRDIVNSGKIGDVVYFIKNNISCFPCEMTKDTFAATEWRQHPKFYGGAFLDAAVHDIAAMRHIFGAVECVQAFGKPQAEDFNPYVSVNAHILFKNGVIGYYTYYPSGIETQKPAVGFRIFGTKGEIYLEDKTCGIINVSYHDGTSELVNFIPERGFYNELLNYYNAINGTEQISVTPEMEYGDVKMVFDILDSVSFREIIYVDEEEPKRRLEIADDEAKIHPFLQ” here?
The value was “not soluble”.

With “MAHHHHHHMSTTQAALFPFRHHWRVPVTLAINTTVPNGAPSATESGGCTQPQSPGEQAAAHAAVTPDGIDAVVTDFVFAQSGRRLLLVRGDSPPDLRLCLSEDSPNGPLSGALGAGIAVEASPLQQAHRALCTGAELIHHVSTLRDQQLEGHRPCDGDTRASALELCVAGYPQGHPLDRTWGATSAAYSAPAEAAATGSVATRDSSVAAARQRSLEFLRAFEEDFDAAEHAFTAAVRVAKRRACVVSAEKRSSDISVDDGTPSAASGEPRERARHLCTPQAVMPELKEPCRTLGRLGAVRRLWTSSSIYAPYVRAACIHRMLHEKVLLRSPSEPEHRRIRSGSFHGGAAAPVIVTQMITTAQGFTGYVDEIQRGLRAWAATAGGGEQPEPAGDGPQQQHPVHAAAPTALTPPISVIPGVLLPHPTDVHVLLRSLYYTKVIPSARMQKALEVYASELMIAWRQLADEPPRRKREPALQDDTFLQALTESNGSAATLEVSEDRVAQVEARVREVRRCASCRLTSVWLSETVDLLHDLQRHGQARLHLFTMFNDKVGVRVAQLLAAYDAPRGASAEQ” as the sequence, how does the “soluble on expression in E. coli” value read?
The value was “not soluble”.

Which “soluble on expression in E. coli” value does the source give for “GPGSMVVASCPGKVLILGGYLIVEEPNVGISVGTTARFVTRVASWKKCSDGKCRVHIVSSQFNKEFTFECAAEEDSDSTIKIVQLEGAPSPFLFYGILYSVAGALLFGGDIFRDVTLELLADNDFYSQRNYLESQGKPVTAANLRLIPRYTPLLGEVSKTGLGSSAAMTTSVVACLLQLYVFDSKKNNATESVERAPELPLRLEDVTEFIHRISQVAHCVAQGKVGSGFDVYTATFGTCVYRRFSARVLEKLVKGNEPPKRVTIPLLRECVETDEVWVQRIPFRLPTGLQLLLGDVHKGGTETPGMVSKVMSWRRSVTTDPNSLWERLRMSNEKYVEALQGLIKQSQEAPVAYTEAVKNLKSVVLAKHNPSTEAERLWVEAASVASTSRRYLREMGEAAQVQIEPPELTSLLDATCSIPGVFAVGCPGAGGYDAVFALVLGEEVCSAVERFWECYNDLQVCPLLVRGDANGLVLD” here?
The value was “not soluble”.

With “MGHHHHHHSHMLREPGDPEKLGEFLQKDNISVHYFCLILSSKLPQRGQSNRGSMDFCLKTSKRRQPGLLGRSALCARKRELLSTARRISASETSICLVAKKGVAFHNFLESTNHFVTNIAQHRTSNMGMWGRKAASYVVKTYPNRVLRTSRARVVVKPSTTASAYRNMPTHQQSISSNVHSVTIERVSSRNAENGNPYSRQEVVPHSVCYVRIPRNPQGLLLS” as the sequence, how does the “soluble on expression in E. coli” value read?
The value was “not soluble”.

For “FNKIKDSVKQKIDSMGDKGTYGVSASHPLAVEEGMKVLKNGGSAVDAAIVVSYVLGVVELHASGIGGGGGMLIISKDKETFIDYRETTPYFTGNQKPHIGVPGFVAGMEYIHDNYGSLPMGELLQPAINYAEKGFKVDDSLTMRLDLAKPRIYSDKLSIFYPNGEPIETGETLIQTDLARTLKKIQKEGAKGFYEGGVARAISKTAKISLEDIKGYKVEVRKPVKGNYMGYDVYTAPPPFSGVTLLQMLKLAEKKEVYKDVDHTATYMSKMEEISRIAYQDRKKNLGDPNYVNMDPNKMVSDKYISTMKNENGDALSEAEHES”, which “soluble on expression in E. coli” value is on record?
The value was “soluble”.

With “VPYKGYLIDLDGTIYQGKNRIPAGERFIKRLQERGIPYLLVTNNTTRTPEMVQSMLANQFHVETSIETIYTATMATVDYMNDMNRGKTAYVIGETGLKSAIAAAGYVEELENPAYVVVGLDSQVTYEMLAIATLAIQKGALFIGTNPDLNIPTERGLMPGAGALNALLEAATRVKPVFIGKPNAIIMNKSLEVLGIQRSEAVMVGDNYLTDIMAGIQNDIATILVTTGFTRPEEVPTLPIQPDHVLSSLDEWRL” as the sequence, how does the “soluble on expression in E. coli” value read?
The value was “soluble”.

Which “soluble on expression in E. coli” value does the source give for “KGKLPPVVHGTTPFVGHIIQFGKDPLGFMLKAKKKYGGIFTMNICGNRITVVGDVHQHSKFFTPRNEILSPREVYSFMVPVFGEGVAYAAPYPRMREQLNFLAEELTVAKFQNFAPSIQHEVRKFMKANWNKDEGEINILDDCSAMIINTACQCLFGEDLRKRLDARQFAQLLAKMESCLIPAAVFLPWILKLPLPQSYRCRDARAELQDILSEIIIAREKEEAQKDTNTSDLLAGLLGAVYRDGTRMSQHEVCGMIVAAMFAGQHTSTITTTWSLLHLMDPRNKRHLAKLHQEIDEFPAQLNYDNVMEEMPFAEQCARESIRRDPPLVMLMRKVLKPVQVGKYVVPEGDIIACSPLLSHQDEEAFPNPREWNPERNMKLVDGAFCGFGAGVHKCIGEKFGLLQVKTVLATVLRDYDFELLGPLPEPNYHTMVVGPTASQCRVKYIKKKKAAA” here?
Its value is “soluble”.

For “MSKLDLNALNELPKVDRILALAETNAELEKLDAEGRVAWALDNLPGEYVLSSSFGIQAAVSLHLVNQIRPDIPVILTDTGYLFPETYRFIDELTDKLKLNLKVYRATESAAWQEARYGKLWEQGVEGIEKYNDINKVEPMNRALKELNAQTWFAGLRREQSGSRANLPVLAIQRGVFKVLPIIDWDNRTIYQYLQKHGLKYHPLWDEGYLSVGDTHTTRKWEPGMAEEETRFFGLKRECGLHEGLEHHHHHH”, which “soluble on expression in E. coli” value is on record?
Its value is “soluble”.

Which “soluble on expression in E. coli” value does the source give for “MDRKIVQLIHNFSGTEKLKAAVFSHDEQCFFDFVSFDELNSKLTGFLLFDSLEKLFKLVETIQQKRSWLYVDELWLINTATENQQLNEVSVWLVKKELAQVGVLTQLDTSLVKLLMASKNTDSALYNTYIKPVELQQFTQTPAPDNVNAEQSHLTLESTTDLNNSQLANTPALWEVEQTTQELLPTMDFSKFIDELDQITKNFSDLELEPLSFNEGFDEWNQE” here?
Its value is “soluble”.

With “MDVLSGTQVTDPEQLIVNREEVDDIELKMAELLSDLERKVLALYLDGRSYQEISEELNRHVKSIDNALQRVKRKLEKYLEYREISL” as the sequence, how does the “soluble on expression in E. coli” value read?
The value was “not soluble”.

With “MAAIINQRVEQGESSMGGAKPALLHRITGHVARINDVILLSKDEGVWTASDDRSVRLYLKRDNDQFWPSIHHFMPVAPTSLYYSEETYKLLVGLINGNVYEFSVADDFNSMTESRKWTCHAGPISGLGFALSSELIFSCSRDKSIVWHCSENSNKMGSYLLENSCTAMVIDLPFVFVGDHGGHVTVLRIVDNQPNLVSKLSAHTNAITSLTWDGNKKVLYSGSSDHLIIMWDIGGGRGEAYELNGHNGKVTTLCAAPAAKRLFSADEHGKLMCWDMNCKRVETPEWKTSDCCQKCNQPFFWNLQAMWQRKVVGLRQHHCRTCGSAVCGSCCDNWTTYPPMGYETKIRICNDCNARMKDNPQNFNLTPLAIPHEIHTGITAMHLQETLGLLVTSGQNRVIMIWDVRSVCSAPSGSQ” as the sequence, how does the “soluble on expression in E. coli” value read?
The value was “not soluble”.
